Experimental data reported in patent EP0877803B1.

How the values were obtained:
OB protein [1] = assay: BIACORE; OB protein immobilized, conditioned medium of CHO cells expressing the receptor
OB protein [2] = assay: BIACORE; OB protein immobilized, conditioned medium of 293 cells expressing the receptor

For “recombinant soluble human OB receptor (leader + extracellular domain, Seq. ID No. 10)”, the BIACORE read-out (OB protein [1]) was 151 and the BIACORE read-out (OB protein [2]) was 191.
In the case of “recombinant soluble human OB receptor with a C-terminal FLAG-tag (Seq. ID No. 12)”, the BIACORE read-out (OB protein [2]) was 172.
